Assay: soluble on expression in E. coli; label from the status in PepcDB or PDB records

Row | Sequence | soluble on expression in E. coli
1 | MYTTQMDAAKKGIITDEMRIVAEKEGVHVEKLRELVASGKVVIPANKNHKKLEPQGIGEGLRTKINVNIGISKDCCNFEMELEKAKKAIELKAEAIMDLSSYGKTREFRRKLVEMSPVMIGTVPVYDAVGFYEKDLKDISAEEFFEVVEKHAEDGVDFMTIHAGINRETAKRFKENGRLTNIVSRGGSLIFAWMELTGNENPFYEQYDRLLQIFEKYDVTISLGDALRPGSINDSTDASQIQELIVLGELTKRAWEKNVQVMIEGPGHMAINEIAPNMVLEKKLCHGAPFYVLGPIVTDIAPGYDHITSAIGGAIAAANGADFLCYVTPAEHLRLPDIDDMKEGIIAARIAAHAADIAKGIKGAREWDYQMSEARRNLDWNRMFELAIDREKAERYRKSSMPEDEDTCTMCGRMCAVKNTNKALKGEKINIL | not soluble
2 | MYVTVTEAAYKKIMDTIPSEAKYIKLFYDNEGCGCVMSGIIDLVAVAEKDERDVDIESSTMNFIADRTKLVFMDDKLTVDWHEGGGTFQLKSPSQFYNPNMKLHVRV | not soluble
3 | MYYADSSPALVGLIALNARLHGIRADVVDFMAASTPAGEQAISHVYLPFSVAGVPSTFLVSM | not soluble
4 | NAIQWVEHTDRVINNTNRSMKLSIDMETGMRGFLLTGDQHFLDPYEIAKPLLVAELNGLQDLVKDNPTQQDRFRRLFTMQQEWNVFAQDMIDLRRNNGDFQTPVLAGRGKRITDQIRTEYEQAVEMEQQLRLTRNAE | not soluble
5 | NAMYTITDIAPTDAEFIALIAALDAWQETLYPAESNHLLDLSQLPPQTVIALAIRSPQGEAVGCGAIVLSEEGFGEMKRVYIDPQHRGQQLGEKLLAALEAKARQRDCHTLRLETGIHQHAAIALYTRNGYQTRCAFAPYQPDPLSVFMEKPLFADLRSAAL | soluble
6 | NEVDDMDTSDTQWGWFYLAECGKWHMFQPDTNSQCSVSSEDIEKSFKTNPCGSISFTTSKFSYKIDFAEMKQMNLTTGKQRLIKRAPFS | soluble
7 | NGLLYKRWVKQRAEDVEKWSGGRLGYVHIQSMGDGSFRTVYSDILGKYNNCDGIVIDTRFNGGGRLHEDIEILFSGQKYFTQVVRGREACDMPSRRWNKPSIMLQCEANYSNAHGTPWVYKHQNIGKLVGMPVPGTMTSVSWETLQDPSLVFGIPIIGYRLPDGSYLENTQLEPDIKVANSPETIVKGEDTQLKMAVDELLKEIDSRKK | not soluble
8 | NHINPVNPAEPALYLPTQYDVREFAEKTKNETVYVFTSVGEYWPLAWYLRDHRAYFITTGVEGRSFISGNYIVVNATNDMRLDKTNLEFVETMVVRCWTFWTTPELQRIPAFLAFREPLTDVSCMNFSVYRAI | not soluble
9 | NIYDSANELSRGLRGLPEYKAVKAAKDAIAADAEASKIFTDYLAFQEEIQKLAQTGQMPDASFQAKMEGFGKQIQGNSLLSEFFTKQQQLAIYLSDIEKIVFEPVSELLK | not soluble
10 | NKSDAAAKQIKKLEEDFDGRIGVFAIDTGSGNTFGYRSDERFPLCSSFKGFLAAAVLERVQQKKLDINQKVKYESRDLEYHSPITTKYKGSGMTLGDMASAALQYSDNGATNIIMERFLGGPEGMTKFMRSIGDNEFRLDRWELELNTAIPGDKRDTSTPKAVANSLNKLALGNVLNAKVKAIYQNWLKGNTTGDARIRASVPADWVVGDKTGSCGAYGTANDYAVIWPKNRAPLIVSIYTTRKSKDDKHSDKTIAEASRIAIQAID | soluble
11 | NLAHDTVFEVRNVTSRDRKKVRDISFSVCRGEILGFAGLVGSGRTELMNCLFGVDKRAGGEIRLNGKDISPRSPLDAVKKGMAYITESRRDNGFFPNFSIAQNIAISRSLKDGGYKGAMGLFHEVDEQRTAEAQRELLALKCHSVNQNITELSGGNQQKVLISKWLCCHPEVIIFDEPTRGIDVGAKAEIYKVMRQLADDGKVILMVSSELPEIITVCDRIAVFCEGRLTQILTNRDDMSEEEIMAWALPHE | not soluble
